Laboratory results published in patent US20250101098A1 (R P SCHERER TECHNOLOGIES, published 2025).
Changes are numbered by the printed parent chain. Values belong to the binder of their own block, whether it stands above or below them.

Legend:
[1] = biological target: T1, human nectin-4 protein expressed on the surface of cells (human, UniProt Q96NY8 32-510); assay: cell-based or functional assay
T1 sequence: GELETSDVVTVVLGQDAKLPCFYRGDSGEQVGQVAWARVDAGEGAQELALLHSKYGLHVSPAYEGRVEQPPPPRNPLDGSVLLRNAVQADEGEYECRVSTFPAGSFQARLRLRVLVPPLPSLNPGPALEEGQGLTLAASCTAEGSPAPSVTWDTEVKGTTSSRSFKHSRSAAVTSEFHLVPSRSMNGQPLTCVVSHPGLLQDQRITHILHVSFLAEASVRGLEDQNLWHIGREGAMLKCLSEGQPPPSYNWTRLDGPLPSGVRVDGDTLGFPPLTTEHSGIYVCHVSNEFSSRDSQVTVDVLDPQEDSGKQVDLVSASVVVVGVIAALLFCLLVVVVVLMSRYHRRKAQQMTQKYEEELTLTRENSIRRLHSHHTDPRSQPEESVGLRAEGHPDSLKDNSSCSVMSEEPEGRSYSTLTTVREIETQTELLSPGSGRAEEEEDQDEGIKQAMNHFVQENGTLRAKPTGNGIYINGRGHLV

[2] = biological target: T2, recombinant human Nectin-4-His protein (human, UniProt Q96NY8 32-349); assay: ELISA, coated antigen
T2 construct: Rescreening antigen and bought ELISA antigen are treated as one molecule; also called human Nectin-4-His tagged; Ag1; not shown: His tag
T2 sequence: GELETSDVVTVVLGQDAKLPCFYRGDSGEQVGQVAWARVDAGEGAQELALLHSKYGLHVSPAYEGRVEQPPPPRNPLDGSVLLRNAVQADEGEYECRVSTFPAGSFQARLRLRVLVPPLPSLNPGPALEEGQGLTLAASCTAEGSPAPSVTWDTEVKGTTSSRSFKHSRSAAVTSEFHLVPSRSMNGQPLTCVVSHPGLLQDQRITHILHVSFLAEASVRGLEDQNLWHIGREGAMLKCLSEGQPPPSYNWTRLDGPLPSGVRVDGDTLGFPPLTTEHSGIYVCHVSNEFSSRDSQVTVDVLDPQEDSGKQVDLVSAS

EC50 [2]: 0.225 nM
B1: Nectin-4 5D9 VH1/VL1 (antibody, V domains shown)
VH: QVQLKESGPGLVQPSETLSLTCTVSGFSITNYGVHWIRQSPGKGLEWLGVIWSGGSTDYNAAFVSRVTISRDNSKSQVFFKLNSVQADDTAVYYCARSGKWYYFDYWGQGTTVTVSS
VL: DIQMTQSPASLSASVGDTVTITCRASQNIYSNLAWYQQKQGKSPQLLVYAATNLADGVPSRFSGSGSGTQYTLKINSLQSEDFGTYYCQHFWGTPTFGGGTKVEIK
notes: Humanized; also called 5D9 VH variant 1 / 5D9 VL variant 1
Cell kill IC50, HekNectin4 [1]: 0.249 nM
Cell kill IC50, MDA-MB468 [1]: 1.42 nM
Cell kill IC50, SKBR3 [1]: 15 nM

EC50 [2]: 0.368 nM
B2: Nectin-4 5D9 VH1/VL2 (antibody, V domains shown)
VH: B1 VH
VL: B1 VL with A9S, S43A, Q45K, Q70D, Y71F, S80P, G84A
notes: Humanized; also called 5D9 VH variant 1 / 5D9 VL variant 2
Cell kill IC50, HekNectin4 [1]: 3.35 nM
Cell kill IC50, MDA-MB468 [1]: 10.3 nM
Cell kill IC50, SKBR3 [1]: 9.85 nM

EC50 [2]: 0.765 nM
B3: Nectin-4 5D9 VH2/VL4 (antibody, V domains shown)
VH: B1 VH with K5Q, Q13K, S40P, A62S, F63L, N73T, V78F, F80L
VL: DIQMTQSPSSLSASVGDRVTITCRASENIYSNLAWYQQKPGKAPKLLVYAATNLADGVPSRFSGSGSGTDYTLTISSLQPEDFATYYCQHFWGTPTFGGGTKVEIK
notes: Humanized; also called 5D9 VH variant 2 / 5D9 VL variant 4
Cell kill IC50, HekNectin4 [1]: 17.8 nM
Cell kill IC50, MDA-MB468 [1]: 27 nM
Cell kill IC50, SKBR3 [1]: 18.5 nM

EC50 [2]: 0.279 nM
B4: Nectin-4 5D9 VH2/VL1 (antibody, V domains shown)
VH: B1 VH with K5Q, Q13K, S40P, A62S, F63L, N73T, V78F, F80L
VL: B1 VL
notes: Humanized; also called 5D9 VH variant 2 / 5D9 VL variant 1
Cell kill IC50, HekNectin4 [1]: 3.93 nM
Cell kill IC50, MDA-MB468 [1]: 21.4 nM
Cell kill IC50, SKBR3 [1]: 14.7 nM

EC50 [2]: 0.346 nM
B5: Nectin-4 5D9 VH1/VL5 (antibody, V domains shown)
VH: B1 VH
VL: B3 VL with E27Q, N28S, A55Q, D56S, Y71F
notes: Humanized; also called 5D9 VH variant 1 / 5D9 VL variant 5
Cell kill IC50, HekNectin4 [1]: 1.41 nM
Cell kill IC50, MDA-MB468 [1]: 10.2 nM
Cell kill IC50, SKBR3 [1]: 10.1 nM

EC50 [2]: 33.4 nM
B6: Nectin-4 5D9 VH5/VL1 (antibody, V domains shown)
VH: QVQLQESGPGLVKPSETLSLTCTVSGGSLTNYGVHWVRQPPGKGLEWIGVIWSGGSTNYNPSLKSRVTISRDTSKNQVSLKLSSVTAADTAVYYCARSGKWYYFDYWGQGTLVTVSS
VL: B1 VL
notes: Humanized; also called 5D9 VH variant 5 / 5D9 VL variant 1
Cell kill IC50, HekNectin4 [1]: 30.3 nM
Cell kill IC50, MDA-MB468 [1]: 19 nM
Cell kill IC50, SKBR3 [1]: 13.3 nM

EC50 [2]: > 20 nM
B7: Nectin-4 5D9 VH3/VL1 (antibody, V domains shown)
VH: B6 VH with L29I, V37I, I48L, N58D, R71V, V78F
VL: B1 VL
notes: Humanized; also called 5D9 VH variant 3 / 5D9 VL variant 1
Cell kill IC50, HekNectin4 [1]: 73.3 nM
Cell kill IC50, MDA-MB468 [1]: 41.6 nM
Cell kill IC50, SKBR3 [1]: 46.9 nM

EC50 [2]: 0.212 nM
B8: Nectin-4 5D9 VH4/VL1 (antibody, V domains shown)
VH: B6 VH with E6Q, G27F, I48L, N58D, V67L, L80F, L82M
VL: B1 VL
notes: Humanized; also called 5D9 VH variant 4 / 5D9 VL variant 1; Nectin-4 VH4/VL1
Cell kill IC50, HekNectin4 [1]: 0.182 nM
Cell kill IC50, MDA-MB468 [1]: 1.08 nM
Cell kill IC50, SKBR3 [1]: 3.85 nM

EC50 [2]: 0.228 nM
B9: Nectin-4 5D9 VH1/VL4 (antibody, V domains shown)
VH: B1 VH
VL: B3 VL
notes: Humanized; also called 5D9 VH variant 1 / 5D9 VL variant 4
Cell kill IC50, HekNectin4 [1]: 0.277 nM
Cell kill IC50, MDA-MB468 [1]: 5.17 nM
Cell kill IC50, SKBR3 [1]: 9.02 nM

EC50 [2]: 0.236 nM
B10: Nectin-4 5D9 VH4/VL2 (antibody, V domains shown)
VH: B6 VH with E6Q, G27F, I48L, N58D, V67L, L80F, L82M
VL: B3 VL with R18T, E27Q, P40Q, Y71F, T74K, S76N
notes: Humanized; also called 5D9 VH variant 4 / 5D9 VL variant 2
Cell kill IC50, HekNectin4 [1]: 0.29 nM
Cell kill IC50, MDA-MB468 [1]: 3.13 nM
Cell kill IC50, SKBR3 [1]: 4.95 nM

EC50 [2]: 172 nM
B11: Nectin-4 5D9 VH2/VL2 (antibody, V domains shown)
VH: B1 VH with K5Q, Q13K, S40P, A62S, F63L, N73T, V78F, F80L
VL: B3 VL with R18T, E27Q, P40Q, Y71F, T74K, S76N
notes: Humanized; also called 5D9 VH variant 2 / 5D9 VL variant 2
Cell kill IC50, HekNectin4 [1]: 55.5 nM
Cell kill IC50, MDA-MB468 [1]: 19.3 nM
Cell kill IC50, SKBR3 [1]: 14.4 nM

EC50 [2]: 0.321 nM
B12: Nectin-4 5D9 VH1/VL3 (antibody, V domains shown)
VH: B1 VH
VL: B3 VL with E27Q, N28S, D56S, Y71F
notes: Humanized; also called 5D9 VH variant 1 / 5D9 VL variant 3
Cell kill IC50, HekNectin4 [1]: 2.94 nM
Cell kill IC50, MDA-MB468 [1]: 10.3 nM
Cell kill IC50, SKBR3 [1]: 9.36 nM
